Results reported in patent US20260209386A1 (MYTHIC THERAPEUTICS, published 2026).

B1: MYT10897 (antibody, V domains shown)
VH: EVQLVESGGGLVQPGGSLRLSCTASGFSLSNYVMNWVRQAPGKGLEWVGIIHSSGSTYYASWAKGRFTISRDTSKNTVYLQMNSLRAEDTAVYFCARGLYLWGQGTLVTVSS
VL: EIVMTQSPSTLSASVGDRVIITCQSSQSVYNNNLLAWYQQKPGKAPKLLIYYTSNLASGVPSRFSGSGSGAEFTLTISSLQPDDFATYYCQGGYNGNIYAFGQGTKLTVL
notes: MYT9345 variant, substitution at VH pos 52 (H2 03), no Ala mark
B2: MYT10925 (antibody, V domains shown)
VH: EVQLVESGGGLVQPGGSLRLSCTASGFSLSNYVMNWVRQAPGKGLEWVGIIDSSGSTYYASWAKGRFTISRDTSKNTVYLQMNSLRAEDTAVYFCARGLYLWGQGTLVTVSS
VL: EIVMTQSPSTLSASVGDRVIITCQSSQSVHNNNLLAWYQQKPGKAPKLLIYYTSNLASGVPSRFSGSGSGAEFTLTISSLQPDDFATYYCQGGYNGNIYAFGQGTKLTVL
notes: MYT9345 variant, His at VL pos 30 (L1 07)
B3: MYT10920 (antibody, V domains shown)
VH: EVQLVESGGGLVQPGGSLRLSCTASGFSLSNYVMNWVRQAPGKGLEWVGIIDSSGSTYYASWAKGRFTISRDTSKNTVYLQMNSLRAEDTAVYFCARGLYLWGQGTLVTVSS
VL: EIVMTQSPSTLSASVGDRVIITCQHSQSVYNNNLLAWYQQKPGKAPKLLIYYTSNLASGVPSRFSGSGSGAEFTLTISSLQPDDFATYYCQGGYNGNIYAFGQGTKLTVL
notes: MYT9345 variant, His at VL pos 25 (L1 02)
B4: MYT10916 (antibody, V domains shown)
VH: EVQLVESGGGLVQPGGSLRLSCTASGFSLSNYVMNWVRQAPGKGLEWVGIIDSSGSTYYASWAKGRFTISRDTSKNTVYLQMNSLRAEDTAVYFCARGLYHWGQGTLVTVSS
VL: EIVMTQSPSTLSASVGDRVIITCQSSQSVYNNNLLAWYQQKPGKAPKLLIYYTSNLASGVPSRFSGSGSGAEFTLTISSLQPDDFATYYCQGGYNGNIYAFGQGTKLTVL
notes: MYT9345 variant, His at VH pos 101 (H3 06)
B5: MYT10896 (antibody, V domains shown)
VH: EVQLVESGGGLVQPGGSLRLSCTASGFSLSNYVMNWVRQAPGKGLEWVGIHDSSGSTYYASWAKGRFTISRDTSKNTVYLQMNSLRAEDTAVYFCARGLYLWGQGTLVTVSS
VL: EIVMTQSPSTLSASVGDRVIITCQSSQSVYNNNLLAWYQQKPGKAPKLLIYYTSNLASGVPSRFSGSGSGAEFTLTISSLQPDDFATYYCQGGYNGNIYAFGQGTKLTVL
notes: MYT9345 variant, His at VH pos 51 (H2 02)
B6: MYT10918 (antibody, V domains shown)
VH: EVQLVESGGGLVQPGGSLRLSCTASGFSLSNYVMNWVRQAPGKGLEWVGIIASSGSTYYASWAKGRFTISRDTSKNTVYLQMNSLRAEDTAVYFCARGLYLWGQGTLVTVSS
VL: EIVMTQSPSTLSASVGDRVIITCQSSQSVYNNNLLAWYQQKPGKAPKLLIYYTSNLASGVPSRFSGSGSGAEFTLTISSLQPDDFATYYCQGGYNGNIYAFGQGTKLTVL
notes: MYT9345 variant, Ala at VH pos 52 (H2 03)
B7: MYT10905 (antibody, V domains shown)
VH: EVQLVESGGGLVQPGGSLRLSCTASGFSLSNYVMNWVRQAPGKGLEWVGIIDSSGSTYYHSWAKGRFTISRDTSKNTVYLQMNSLRAEDTAVYFCARGLYLWGQGTLVTVSS
VL: EIVMTQSPSTLSASVGDRVIITCQSSQSVYNNNLLAWYQQKPGKAPKLLIYYTSNLASGVPSRFSGSGSGAEFTLTISSLQPDDFATYYCQGGYNGNIYAFGQGTKLTVL
notes: MYT9345 variant, His at VH pos 60 (H2 11)
B8: MYT10911 (antibody, V domains shown)
VH: EVQLVESGGGLVQPGGSLRLSCTASGFSLSNYVMNWVRQAPGKGLEWVGIIDSSGSTYYASWAKGRFTISRDTSKNTVYLQMNSLRAEDTAVYFCHRGLYLWGQGTLVTVSS
VL: EIVMTQSPSTLSASVGDRVIITCQSSQSVYNNNLLAWYQQKPGKAPKLLIYYTSNLASGVPSRFSGSGSGAEFTLTISSLQPDDFATYYCQGGYNGNIYAFGQGTKLTVL
notes: MYT9345 variant, His at VH pos 96 (H3 01)
B9: MYT10889 (antibody, V domains shown)
VH: EVQLVESGGGLVQPGGSLRLSCTASGFSLHNYVMNWVRQAPGKGLEWVGIIDSSGSTYYASWAKGRFTISRDTSKNTVYLQMNSLRAEDTAVYFCARGLYLWGQGTLVTVSS
VL: EIVMTQSPSTLSASVGDRVIITCQSSQSVYNNNLLAWYQQKPGKAPKLLIYYTSNLASGVPSRFSGSGSGAEFTLTISSLQPDDFATYYCQGGYNGNIYAFGQGTKLTVL
notes: MYT9345 variant, His at VH pos 30 (H1 05)
B10: MYT10891 (antibody, V domains shown)
VH: EVQLVESGGGLVQPGGSLRLSCTASGFSLSNHVMNWVRQAPGKGLEWVGIIDSSGSTYYASWAKGRFTISRDTSKNTVYLQMNSLRAEDTAVYFCARGLYLWGQGTLVTVSS
VL: EIVMTQSPSTLSASVGDRVIITCQSSQSVYNNNLLAWYQQKPGKAPKLLIYYTSNLASGVPSRFSGSGSGAEFTLTISSLQPDDFATYYCQGGYNGNIYAFGQGTKLTVL
notes: MYT9345 variant, His at VH pos 32 (H1 07)
B11: MYT10895 (antibody, V domains shown)
VH: EVQLVESGGGLVQPGGSLRLSCTASGFSLSNYVMNWVRQAPGKGLEWVGHIDSSGSTYYASWAKGRFTISRDTSKNTVYLQMNSLRAEDTAVYFCARGLYLWGQGTLVTVSS
VL: EIVMTQSPSTLSASVGDRVIITCQSSQSVYNNNLLAWYQQKPGKAPKLLIYYTSNLASGVPSRFSGSGSGAEFTLTISSLQPDDFATYYCQGGYNGNIYAFGQGTKLTVL
notes: MYT9345 variant, His at VH pos 50 (H2 01)
B12: MYT10903 (antibody, V domains shown)
VH: EVQLVESGGGLVQPGGSLRLSCTASGFSLSNYVMNWVRQAPGKGLEWVGIIDSSGSTHYASWAKGRFTISRDTSKNTVYLQMNSLRAEDTAVYFCARGLYLWGQGTLVTVSS
VL: EIVMTQSPSTLSASVGDRVIITCQSSQSVYNNNLLAWYQQKPGKAPKLLIYYTSNLASGVPSRFSGSGSGAEFTLTISSLQPDDFATYYCQGGYNGNIYAFGQGTKLTVL
notes: MYT9345 variant, His at VH pos 58 (H2 09)
B13: MYT10888 (antibody, V domains shown)
VH: EVQLVESGGGLVQPGGSLRLSCTASGFSHSNYVMNWVRQAPGKGLEWVGIIDSSGSTYYASWAKGRFTISRDTSKNTVYLQMNSLRAEDTAVYFCARGLYLWGQGTLVTVSS
VL: EIVMTQSPSTLSASVGDRVIITCQSSQSVYNNNLLAWYQQKPGKAPKLLIYYTSNLASGVPSRFSGSGSGAEFTLTISSLQPDDFATYYCQGGYNGNIYAFGQGTKLTVL
notes: MYT9345 variant, His at VH pos 29 (H1 04)
B14: MYT10898 (antibody, V domains shown)
VH: EVQLVESGGGLVQPGGSLRLSCTASGFSLSNYVMNWVRQAPGKGLEWVGIIDHSGSTYYASWAKGRFTISRDTSKNTVYLQMNSLRAEDTAVYFCARGLYLWGQGTLVTVSS
VL: EIVMTQSPSTLSASVGDRVIITCQSSQSVYNNNLLAWYQQKPGKAPKLLIYYTSNLASGVPSRFSGSGSGAEFTLTISSLQPDDFATYYCQGGYNGNIYAFGQGTKLTVL
notes: MYT9345 variant, His at VH pos 53 (H2 04)
B15: MYT11026 (antibody, V domains shown)
VH: EVQLVESGGGLVQPGGSLRLSCTASGFSLSSYAMGWVRQAPGKGLEWVGFINAGGNTYYANWAKGRFTISRDTSKNTVYLQMNSLRAEDTAVYFCARRYSRASGWYDLWGQGTLVTVSS
VL: EIVMTQSPSTLSASVGDRVIITCQASQSISSYLAWYQQKPGKAPKLLIYAASTLASGVPSRFSGSGSGAEFTLTISSLQPDDFATYYCQSYSYSSGIDYGAVFGQGTKLTVL
notes: MYT9359 LC alanine variant; captured on anti-human Fc sensor

Molecular target: T1, Human PTK7 Protein, His Tag, Acro Biosystems (human, UniProt Q13308 31-704)
T1 construct: Bought recombinant protein; also called CCK4; not shown: His tag
T1 sequence: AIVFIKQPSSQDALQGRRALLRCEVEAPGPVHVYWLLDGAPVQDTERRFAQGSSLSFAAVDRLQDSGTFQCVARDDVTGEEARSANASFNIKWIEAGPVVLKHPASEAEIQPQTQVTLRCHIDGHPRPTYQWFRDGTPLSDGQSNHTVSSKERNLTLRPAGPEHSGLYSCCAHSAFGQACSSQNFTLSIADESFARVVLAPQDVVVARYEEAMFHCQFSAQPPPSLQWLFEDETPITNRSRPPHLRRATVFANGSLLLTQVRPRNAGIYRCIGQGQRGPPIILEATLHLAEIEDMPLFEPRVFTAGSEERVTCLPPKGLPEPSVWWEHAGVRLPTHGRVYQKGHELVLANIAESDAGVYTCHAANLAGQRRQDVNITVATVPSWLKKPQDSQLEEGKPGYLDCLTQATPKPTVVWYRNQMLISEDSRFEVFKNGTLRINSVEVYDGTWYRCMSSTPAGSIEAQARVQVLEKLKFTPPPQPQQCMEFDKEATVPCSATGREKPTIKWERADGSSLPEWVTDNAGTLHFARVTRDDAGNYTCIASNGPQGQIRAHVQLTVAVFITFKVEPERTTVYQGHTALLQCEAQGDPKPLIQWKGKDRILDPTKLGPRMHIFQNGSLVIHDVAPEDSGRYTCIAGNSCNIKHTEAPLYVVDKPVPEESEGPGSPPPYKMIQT
Test: BLI (Octet), antibody on anti-human Fc sensor, 50 nM PTK7 at pH 7.4, dissociation at pH 7.4 or 5.4; 1 = pH dependent binding relative to parent

Binding result, binds:
B1, B2, B3, B4, B5, B6, B7, B8, B9, B10, B11, B12, B13, B14

Molecular target: T2, Human PTK7 Protein, His Tag (Acro Biosystems) (human, UniProt Q13308 31-704)
T2 construct: Bought His-tagged recombinant human PTK7; also called CCK4; Tyrosine-protein kinase-like 7
T2 sequence: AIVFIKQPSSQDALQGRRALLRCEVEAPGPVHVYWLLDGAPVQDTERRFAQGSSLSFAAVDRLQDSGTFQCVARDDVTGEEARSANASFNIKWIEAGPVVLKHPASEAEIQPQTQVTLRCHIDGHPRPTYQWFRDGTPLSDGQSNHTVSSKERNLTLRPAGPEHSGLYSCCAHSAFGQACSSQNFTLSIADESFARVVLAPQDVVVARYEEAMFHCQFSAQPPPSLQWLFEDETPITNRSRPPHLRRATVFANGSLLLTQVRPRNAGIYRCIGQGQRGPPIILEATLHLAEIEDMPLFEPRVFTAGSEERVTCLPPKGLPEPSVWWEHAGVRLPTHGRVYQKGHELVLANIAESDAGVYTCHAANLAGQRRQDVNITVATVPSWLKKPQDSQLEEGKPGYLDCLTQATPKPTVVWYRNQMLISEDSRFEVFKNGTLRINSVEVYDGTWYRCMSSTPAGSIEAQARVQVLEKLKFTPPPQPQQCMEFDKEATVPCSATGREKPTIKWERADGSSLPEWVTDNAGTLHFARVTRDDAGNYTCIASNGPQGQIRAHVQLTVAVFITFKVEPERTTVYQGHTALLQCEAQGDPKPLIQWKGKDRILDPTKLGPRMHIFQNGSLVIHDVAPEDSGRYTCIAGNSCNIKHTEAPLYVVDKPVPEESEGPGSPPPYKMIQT
Test: BLI (Octet), antibody on anti-human Fc sensor, 50 nM PTK7; 1 = pH dependent binding

Binding result, binds:
B15
